Test in all cases: SPR
Assay [1] concerns the target Fc gamma RIIIA/CD16a, CF (FcγRIIIA(V158)) (R&D Systems).
Assay [2] addresses T1, FcγRIIB/C (CD32b/c) (FcγRIIB) (R&D Systems) (UniProt P31994 46-217).
T1 chain: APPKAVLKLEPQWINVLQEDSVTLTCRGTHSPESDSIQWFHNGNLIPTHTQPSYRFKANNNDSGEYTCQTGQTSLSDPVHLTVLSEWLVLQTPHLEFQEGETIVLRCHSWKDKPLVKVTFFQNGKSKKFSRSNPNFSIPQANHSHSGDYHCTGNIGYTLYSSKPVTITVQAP

For assay [3], the target named is T1, FcγRIIB/C (CD32b/c) (FcγRIIB) (R&D …).

Read-outs that look alike come from different tables or passages of the source.

One may read the Kd as the free concentration of one partner at which half of the binding sites on the other are occupied at equilibrium, for simple one-to-one binding. A lower Kd goes with higher affinity.

Sequence of Fc gamma RIIIA/CD16a, CF (FcγRIIIA(V158)) (R&D Systems) (chain, as listed by the source): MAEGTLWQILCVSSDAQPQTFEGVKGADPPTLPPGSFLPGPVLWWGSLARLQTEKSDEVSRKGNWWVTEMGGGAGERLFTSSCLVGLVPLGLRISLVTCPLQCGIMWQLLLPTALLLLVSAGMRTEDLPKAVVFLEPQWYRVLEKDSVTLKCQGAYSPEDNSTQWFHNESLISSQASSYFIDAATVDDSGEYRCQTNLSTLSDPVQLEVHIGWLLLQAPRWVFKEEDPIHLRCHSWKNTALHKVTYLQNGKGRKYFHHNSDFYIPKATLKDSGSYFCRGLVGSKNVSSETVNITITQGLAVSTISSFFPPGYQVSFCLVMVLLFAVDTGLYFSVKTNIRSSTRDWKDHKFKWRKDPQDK

B1: X3-KL HM268-K8 (antibody)
chain 1: QVQLVQSGPEVKKPGASVKVVCKTSGYTFTSYYIQWLKQRPGQGLEWIGWIYFGDASTKYNEKFKGRVTMTADKSTSTAYMELRSLRSDDTAVYYCASYYGSYFDYWGQGTTVTVSSASTKGPSVFPLAPSSKSTSGGTAALGCLVKDYFPEPVTVSWNSGALTSGVHTFPAVLQSSGLYSLSSVVTVPSSSLGTQTYICNVNHKPSNTKVDKKVEPKSCDKTHTCPPCPAPELLGGPDVFLFPPKPKDTLMISRTPEVTCVVVDVSDEDPEVKFNWYVDGVEVHNAKTKPREEQYNSTYRVVSVLTVLHQDWLNGKEYKCAVSNKAYPAPIEKTISKAKGQPREPQVYTLPPSRDELTKNQVSLTCLVKGFYPSDIAVEWESNGQPENNYKTTPPVLDSDGSFFLYSKLTVDKSRWQQGNVFSCSVMHEALHNHYTQKSLSLSPGK
chain 2: DIQMTQSPSSLSASVGDRVTITCRASQDISNYLNWYQQKPDGTVKLLIYSTSRLHSGVPSRFSGSGSGTDYTLTISSLQPEDFATYYCQQGSTLPFTFGQGTKLEIKRTVAAPSVFIFPPSDEQLKSGTASVVCLLNNFYPREAKVQWKVDNALQSGNSQESVTEQDSKDSTYSLSSTLTLSKADYEKHKVYACEVTHQGLSSPVTKSFNRGEC
On to B1, for which the dissociation constant Kd amounted to 1250 nM in assay [1] and 736 nM in assay [2].

B2: X3-KS-DF HM242-C3 (antibody)
chain 1: QVQLVQSGPEVKKPGASVKVVCKASGYTFTSYYIQWVKQRPGQGLEWIGWIYPGDGTTKYNEKFKGRVTMTIDKSTRTAYMELRSLRSDDTAVYYCASYYGSYFDYWGQGTLVTVSSASTKGPSVFPLAPSSKSTSGGTAALGCLVKDYFPEPVTVSWNSGALTSGVHTFPAVLQSSGLYSLSSVVTVPSSSLGTQTYICNVNHKPSNTKVDKKVEPKSCDKTHTCPPCPAPELLGGPDVFLFPPKPKDTLMISRTPEVTCVVVDVGDEDPEVKFNWYVDGVEVHNAKTKPREEQYNSTYRVVSVLTVLHQDWLNGKEYKCAVSNKALPAPIEKTISKAKGQPREPQVYTLPPSRDELTKNQVSLTCLVKGFYPSDIAVEWESNGQPENNYKTTPPVLDSDGSFFLYSKLTVDKSRWQQGNVFSCSVMHEALHNHYTQKSLSLSPGK
chain 2: not shown
In assay [2], B2 displayed a Kd of 1170 nM.

B3: X4-K HM268-K8 (antibody)
chain 1: QVQLVQSGPEVKKPGASVKVVCKTSGYTFTSYYIQWLKQRPGQGLEWIGWIYFGDASTKYNEKFKGRVTMTADKSTSTAYMELRSLRSDDTAVYYCASYYGSYFDYWGQGTTVTVSSASTKGPSVFPLAPSSKSTSGGTAALGCLVKDYFPEPVTVSWNSGALTSGVHTFPAVLQSSGLYSLSSVVTVPSSSLGTQTYICNVNHKPSNTKVDKKVEPKSCDKTHTCPPCPAPELLGGPDVFLFPPKPKDTLMISRTPEVTCVVVDVSDEDPEVKFNWYVDGVEVHNAKTKPREEQYNSTYRVVSVLTVLHQDWLNGKEYKCAVSNKAYPAPEEKTISKAKGQPREPQVYTLPPSRDELTKNQVSLTCLVKGFYPSDIAVEWESNGQPENNYKTTPPVLDSDGSFFLYSKLTVDKSRWQQGNVFSCSVMHEALHNHYTQKSLSLSPGK
chain 2: DIQMTQSPSSLSASVGDRVTITCRASQDISNYLNWYQQKPDGTVKLLIYSTSRLHSGVPSRFSGSGSGTDYTLTISSLQPEDFATYYCQQGSTLPFTFGQGTKLEIKRTVAAPSVFIFPPSDEQLKSGTASVVCLLNNFYPREAKVQWKVDNALQSGNSQESVTEQDSKDSTYSLSSTLTLSKADYEKHKVYACEVTHQGLSSPVTKSFNRGEC
Regarding B3, the Kd in assay [3] turned out to be 1050 nM; in assay [1], 236 nM.

B4: X3-KS-DF HM297-H5 (antibody)
chain 1: QVQLVQSGPEVKKPGASVKIPCKASGYTFTDYNVDWVRQVPGQGLEWMGDIDPNNGGTIYNQKFKDRVTMTVDKSTRTAYMELRSLRSDDTAVYYCARWRGAMDYWGQGTLVTVSSASTKGPSVFPLAPSSKSTSGGTAALGCLVKDYFPEPVTVSWNSGALTSGVHTFPAVLQSSGLYSLSSVVTVPSSSLGTQTYICNVNHKPSNTKVDKKVEPKSCDKTHTCPPCPAPELLGGPDVFLFPPKPKDTLMISRTPEVTCVVVDVGDEDPEVKFNWYVDGVEVHNAKTKPREEQYNSTYRVVSVLTVLHQDWLNGKEYKCAVSNKALPAPIEKTISKAKGQPREPQVYTLPPSRDELTKNQVSLTCLVKGFYPSDIAVEWESNGQPENNYKTTPPVLDSDGSFFLYSKLTVDKSRWQQGNVFSCSVMHEALHNHYTQKSLSLSPGK
chain 2: DIQMTQSPSSLSASVGDRVTITCRASQDIDNYLKWYQQKPDGTVKLLIYDTSRLHSGVPSRFSGSGSGTDYTLTISSLKQEDFATYYCQQGYTLPWTFGQGTKLEIKRTVAAPSVFIFPPSDEQLKSGTASVVCLLNNFYPREAKVQWKVDNALQSGNSQESVTEQDSKDSTYSLSSTLTLSKADYEKHKVYACEVTHQGLSSPVTKSFNRGEC
In assay [2], B4 registered a Kd of 1220 nM.

B5: X3-KS-DF HM268-K8 (antibody)
chain 1: QVQLVQSGPEVKKPGASVKVVCKTSGYTFTSYYIQWLKQRPGQGLEWIGWIYFGDASTKYNEKFKGRVTMTADKSTSTAYMELRSLRSDDTAVYYCASYYGSYFDYWGQGTTVTVSSASTKGPSVFPLAPSSKSTSGGTAALGCLVKDYFPEPVTVSWNSGALTSGVHTFPAVLQSSGLYSLSSVVTVPSSSLGTQTYICNVNHKPSNTKVDKKVEPKSCDKTHTCPPCPAPELLGGPDVFLFPPKPKDTLMISRTPEVTCVVVDVGDEDPEVKFNWYVDGVEVHNAKTKPREEQYNSTYRVVSVLTVLHQDWLNGKEYKCAVSNKALPAPIEKTISKAKGQPREPQVYTLPPSRDELTKNQVSLTCLVKGFYPSDIAVEWESNGQPENNYKTTPPVLDSDGSFFLYSKLTVDKSRWQQGNVFSCSVMHEALHNHYTQKSLSLSPGK
chain 2: DIQMTQSPSSLSASVGDRVTITCRASQDISNYLNWYQQKPDGTVKLLIYSTSRLHSGVPSRFSGSGSGTDYTLTISSLQPEDFATYYCQQGSTLPFTFGQGTKLEIKRTVAAPSVFIFPPSDEQLKSGTASVVCLLNNFYPREAKVQWKVDNALQSGNSQESVTEQDSKDSTYSLSSTLTLSKADYEKHKVYACEVTHQGLSSPVTKSFNRGEC
In assay [2], B5 came in with a Kd of 2200 nM.

B6: X2-K HM268-K8 (antibody)
chain 1: QVQLVQSGPEVKKPGASVKVVCKTSGYTFTSYYIQWLKQRPGQGLEWIGWIYFGDASTKYNEKFKGRVTMTADKSTSTAYMELRSLRSDDTAVYYCASYYGSYFDYWGQGTTVTVSSASTKGPSVFPLAPSSKSTSGGTAALGCLVKDYFPEPVTVSWNSGALTSGVHTFPAVLQSSGLYSLSSVVTVPSSSLGTQTYICNVNHKPSNTKVDKKVEPKSCDKTHTCPPCPAPELLDGPSVFLFPPKPKDTLMISRTPEVTCVVVDVSDEDPEVKFNWYVDGVEVHNAKTKPREEQYNSTYRVVSVLTVLHQDWLNGKEYKCAVSNKALPAPIEKTISKAKGQPREPQVYTLPPSRDELTKNQVSLTCLVKGFYPSDIAVEWESNGQPENNYKTTPPVLDSDGSFFLYSKLTVDKSRWQQGNVFSCSVMHEALHNHYTQKSLSLSPGK
chain 2: DIQMTQSPSSLSASVGDRVTITCRASQDISNYLNWYQQKPDGTVKLLIYSTSRLHSGVPSRFSGSGSGTDYTLTISSLQPEDFATYYCQQGSTLPFTFGQGTKLEIKRTVAAPSVFIFPPSDEQLKSGTASVVCLLNNFYPREAKVQWKVDNALQSGNSQESVTEQDSKDSTYSLSSTLTLSKADYEKHKVYACEVTHQGLSSPVTKSFNRGEC
Regarding B6, the Kd in assay [3] was 1650 nM; in assay [1], 7560 nM.

B7: X4-KS HM268-K8 (antibody)
chain 1: QVQLVQSGPEVKKPGASVKVVCKTSGYTFTSYYIQWLKQRPGQGLEWIGWIYFGDASTKYNEKFKGRVTMTADKSTSTAYMELRSLRSDDTAVYYCASYYGSYFDYWGQGTTVTVSSASTKGPSVFPLAPSSKSTSGGTAALGCLVKDYFPEPVTVSWNSGALTSGVHTFPAVLQSSGLYSLSSVVTVPSSSLGTQTYICNVNHKPSNTKVDKKVEPKSCDKTHTCPPCPAPELLGGPDVFLFPPKPKDTLMISRTPEVTCVVVDVGDEDPEVKFNWYVDGVEVHNAKTKPREEQYNSTYRVVSVLTVLHQDWLNGKEYKCAVSNKAYPAPEEKTISKAKGQPREPQVYTLPPSRDELTKNQVSLTCLVKGFYPSDIAVEWESNGQPENNYKTTPPVLDSDGSFFLYSKLTVDKSRWQQGNVFSCSVMHEALHNHYTQKSLSLSPGK
chain 2: DIQMTQSPSSLSASVGDRVTITCRASQDISNYLNWYQQKPDGTVKLLIYSTSRLHSGVPSRFSGSGSGTDYTLTISSLQPEDFATYYCQQGSTLPFTFGQGTKLEIKRTVAAPSVFIFPPSDEQLKSGTASVVCLLNNFYPREAKVQWKVDNALQSGNSQESVTEQDSKDSTYSLSSTLTLSKADYEKHKVYACEVTHQGLSSPVTKSFNRGEC
As for B7, the Kd was 881 nM in assay [1] and 2550 nM in assay [2].

B8: X2-K-DF HM242-C3 (antibody)
chain 1: QVQLVQSGPEVKKPGASVKVVCKASGYTFTSYYIQWVKQRPGQGLEWIGWIYPGDGTTKYNEKFKGRVTMTIDKSTRTAYMELRSLRSDDTAVYYCASYYGSYFDYWGQGTLVTVSSASTKGPSVFPLAPSSKSTSGGTAALGCLVKDYFPEPVTVSWNSGALTSGVHTFPAVLQSSGLYSLSSVVTVPSSSLGTQTYICNVNHKPSNTKVDKKVEPKSCDKTHTCPPCPAPELLDGPSVFLFPPKPKDTLMISRTPEVTCVVVDVSDEDPEVKFNWYVDGVEVHNAKTKPREEQYNSTYRVVSVLTVLHQDWLNGKEYKCAVSNKALPAPIEKTISKAKGQPREPQVYTLPPSRDELTKNQVSLTCLVKGFYPSDIAVEWESNGQPENNYKTTPPVLDSDGSFFLYSKLTVDKSRWQQGNVFSCSVMHEALHNHYTQKSLSLSPGK
chain 2: not shown
In turn, B8 displayed a Kd in assay [2] of 1020 nM.

B9: X3-KS-DF HM242-D3 (antibody)
chain 1: QVQLVQSGPEVKKPGASVKVVCKASGYTFTSYYIQWVRQVPGQGLEWMGWIYPGDGTTKYNEKFKGRVTMTIDTSTSTAYMELRSLRSDDTAVYYCASYYGSYFDYWGQGTLVTVSSASTKGPSVFPLAPSSKSTSGGTAALGCLVKDYFPEPVTVSWNSGALTSGVHTFPAVLQSSGLYSLSSVVTVPSSSLGTQTYICNVNHKPSNTKVDKKVEPKSCDKTHTCPPCPAPELLGGPDVFLFPPKPKDTLMISRTPEVTCVVVDVGDEDPEVKFNWYVDGVEVHNAKTKPREEQYNSTYRVVSVLTVLHQDWLNGKEYKCAVSNKALPAPIEKTISKAKGQPREPQVYTLPPSRDELTKNQVSLTCLVKGFYPSDIAVEWESNGQPENNYKTTPPVLDSDGSFFLYSKLTVDKSRWQQGNVFSCSVMHEALHNHYTQKSLSLSPGK
chain 2: not shown
For B9, in assay [2], the dissociation constant (Kd) was found to be 2540 nM.

For the origin of these results see patent US20240317859A1 (published 2024).
